{
  "source": "patent US20040132187A1",
  "molecular_target": "endogenous bradykinin receptor of α7/5-HT3-SH-EP1 cells",
  "assay": "cell-based or functional assay",
  "data": [
    {"substance": "bradykinin (from UniProt P01042 381-389) (peptide)", "values": [
      {"measurement": "increase in intracellular calcium (Calcium Green-1, FLIPR)", "result": 100, "unit": "nM"}
    ]}
  ]
}
